Data from paper PMC7614720.

Substrate: C[C@@H](O)[C@H]1C(=O)N2C(C(=O)O)=C([C@H]3CCCO3)S[C@H]12
Assay: purified protein
Type: biochemical, Stenotrophomonas maltophilia
Conditions: two Zn2+ ions active site

B1: L1 (Stenotrophomonas maltophilia) (protein)
chain: VDASWLQPMAPLQIADHTWQIGTEDLTALLVQTPDGAVLLDGGMPQMASHLLDNMKARGVTPRDLRLILLSHAHADHAGPVAELKRRTGAKVAANAESAVLLARGGSDDLHFGDGITYPPANADRIVMDGEVITVGGIVFTAHFMAGHTPGSTAWTWTDTRNGKPVRIAYADSLSAPGYQLQGNPRYPHLIEDYRRSFATVRALPCDVLLTPHPGASNWDYAAGARAGAKALTCKAYADAAEQKFDGQLAKETAGAR
Km: 36.3 µM
kcat: 43.7 s⁻¹
kcat/Km: 1.2e+06 M⁻¹ s⁻¹
